To fix the notation:
B1: CPEB3 Ribozyme (parent)
chain: GGGGGCCACAGCAGAAGCGUUCACGUCGCGGCCCCUGUCAGAUUCUGGUGAAUCUGCGAAUUCUGCUGU

The data set covers variants of B1. Kind of data set: self-cleavage, relative activity (ratio to wild type); higher = more cleavage; co-transcriptional.
For the variant GGGGGCCACAGCAGAAGCGUUCACGCCGCAGCCCCUGUCAGAUUCUGGUGAAUCUGCGAAUUCUGCUGU [U26C G30A], the self-cleavage amounted to 0.749.
In the case of GGGGGCCACAGCAGAAGCGUUCACGCCGCUGCCCCUGUCAGAUUCUGGUGAAUCUGCGAAUUCUGCUGU [U26C G30U] it was 0.304.
On to GGGGGCCACAGCAGAAGCGUUCACGCCGCGGCCCCUGUCAGAUUCUGGUGAAUGUGCGAAUUCUGCUGU [U26C C54G], for which the self-cleavage was found to be 0.871.
For GGGGGCCACAGCAGAAGCGUUCACGCCGCGGCCCCUGUCAGAUUCUGGUGAAUAUGCGAAUUCUGCUGU [U26C C54A], the self-cleavage stood at 0.92.
Regarding GGGGGCCACAGCAGAAGCGUUCACGCCGCGGCCCCUGUCAGAUUCUGGUGAAUUUGCGAAUUCUGCUGU [U26C C54U], the self-cleavage was 1.03.
As to GGGGGCCACAGCAGAAGCGUUCACGCCGCGGCCCCUGUCAGAUUCUGGUGAAUCUGCGAAUUCUGGUGU [U26C C66G], the self-cleavage came out at 0.692.
Turning to GGGGGCCACAGCAGAAGCGUUCACGCCGCGGCCCCUGUCAGAUUCUGGUGAAUCUGCGAAUUCUGAUGU [U26C C66A], the self-cleavage was 0.585.
Regarding GGGGGCCACAGCAGAAGCGUUCACGCCGCGGCCCCUGUCAGAUUCUGGUGAAUCUGAGAAUUCUGCUGU [U26C C57A], the self-cleavage stood at 0.209.
For the variant GGGGGCCACAGCAGAAGCGUUCACGCCGCGGCCCCUGUCAGAUUCUGGUGAAUCUGGGAAUUCUGCUGU [U26C C57G], the self-cleavage came out at 0.268.
As to GGGGGCCACAGCAGAAGCGUUCACGCCGCGUCCCCUGUCAGAUUCUGGUGAAUCUGCGAAUUCUGCUGU [U26C G31U], the self-cleavage is 0.658.
For GGGGGCCACAGCAGAAGCGUUCACGCCGCGACCCCUGUCAGAUUCUGGUGAAUCUGCGAAUUCUGCUGU [U26C G31A] the value was 0.838; for GGGGGCCACAGCAGAAGCGUUCACGCCGCGCCCCCUGUCAGAUUCUGGUGAAUCUGCGAAUUCUGCUGU [U26C G31C], 0.193.
For GGGGGCCACAGCAGAAGCGUUCACGCCGCGGCCCCUGUCAGAUUUUGGUGAAUCUGCGAAUUCUGCUGU [U26C C45U] the value was 0.953; for GGGGGCCACAGCAGAAGCGUUCACGCCGUGGCCCCUGUCAGAUUCUGGUGAAUCUGCGAAUUCUGCUGU [U26C C29U], 0.135.
For GGGGGCCACAGCAGAAGCGUUCACGCCGGGGCCCCUGUCAGAUUCUGGUGAAUCUGCGAAUUCUGCUGU [U26C C29G] the value was 0.345; for GGGGGCCACAGCAGAAGCGUUCACGCCGAGGCCCCUGUCAGAUUCUGGUGAAUCUGCGAAUUCUGCUGU [U26C C29A], 0.414.
GGGGGCCACAGCAGAAGCGUUCACGCCGCGGCCCGUGUCAGAUUCUGGUGAAUCUGCGAAUUCUGCUGU [U26C C35G]: the self-cleavage is 0.375.
Take GGGGGCCACAGCAGAAGCGUUCACGCCGCGGCCCUUGUCAGAUUCUGGUGAAUCUGCGAAUUCUGCUGU [U26C C35U]: the self-cleavage is 0.964.
With GGGGGCCACAGCAGAAGCGUUCACGCCGCGGCCCCUGUCAGAUUCUGGUGAAUCUGCGACUUCUGCUGU [U26C A60C], the self-cleavage is 0.233.
For GGGGGCCACAGCAGAAGCGUUCACGCCGCGGCCCCUGUCAGAUUCUGGUGAAUCUGCGAUUUCUGCUGU [U26C A60U], the self-cleavage was 0.337.
Turning to GGGGGCCACAGCAGAAGCGUUCACGCCGCGGGCCCUGUCAGAUUCUGGUGAAUCUGCGAAUUCUGCUGU [U26C C32G], the self-cleavage amounted to 0.365.
As for GGGGGCCACAGCAGAAGCGUUCACGCCGCGGCCCCUGUUAGAUUCUGGUGAAUCUGCGAAUUCUGCUGU [U26C C39U], the self-cleavage stood at 0.85.
For GGGGGCCACAGCAGAAGCGUUCACGCCGCGGCCCCUGUGAGAUUCUGGUGAAUCUGCGAAUUCUGCUGU [U26C C39G], the self-cleavage stood at 0.939.
As for GGGGGCCACAGCAGAAGCGUUCACGCCUCGGCCCCUGUCAGAUUCUGGUGAAUCUGCGAAUUCUGCUGU [U26C G28U], the self-cleavage turned out to be 0.139.
Take GGGGGCCACAGCAGAAGCGUUCACGCCACGGCCCCUGUCAGAUUCUGGUGAAUCUGCGAAUUCUGCUGU [U26C G28A]: the self-cleavage turned out to be 0.108.
In the case of GGGGGCCACAGCAGAAGCGUUCACGCCGCGGCACCUGUCAGAUUCUGGUGAAUCUGCGAAUUCUGCUGU [U26C C33A] it was 0.826; in that of GGGGGCCACAGCAGAAGCGUUCACGCCGCGGCGCCUGUCAGAUUCUGGUGAAUCUGCGAAUUCUGCUGU [U26C C33G], 0.474.
Take GGGGGCCACAGCAGAAGCGUUCACGCCGCGGCCCCUUUCAGAUUCUGGUGAAUCUGCGAAUUCUGCUGU [U26C G37U]: the self-cleavage turned out to be 0.205.
Regarding GGGGGCCACAGCAGAAGCGUUCACGCCGCGGCCCCUAUCAGAUUCUGGUGAAUCUGCGAAUUCUGCUGU [U26C G37A], the self-cleavage stood at 0.317.
As to GGGGGCCACAGCAGAAGCGUUCACGCCGCGGCCCCUGUCAAAUUCUGGUGAAUCUGCGAAUUCUGCUGU [U26C G41A], the self-cleavage is 0.673.
Turning to GGGGGCCACAGCAGAAGCGUUCACGCCGCGGCCCCUGUCACAUUCUGGUGAAUCUGCGAAUUCUGCUGU [U26C G41C], the self-cleavage turned out to be 0.708.
Regarding GGGGGCCACAGCAGAAGCGUUCACGCCGCGGCCCCUGUCAUAUUCUGGUGAAUCUGCGAAUUCUGCUGU [U26C G41U], the self-cleavage was 0.8.
For GGGGGCCACAGCAGAAGCGUUCACGCCGCGGCCGCUGUCAGAUUCUGGUGAAUCUGCGAAUUCUGCUGU [U26C C34G], the self-cleavage was found to be 0.492.
As for GGGGGCCACAGCAGAAGCGUUCACGCCGCGGCCCCUGUCAGAUUCUGGUGAAUCUGCGAAUUAUGCUGU [U26C C63A], the self-cleavage amounted to 0.614.
GGGGGCCACAGCAGAAGCGUUCACGCCGCGGCCCCUGUCAGAUUCUGGUGAAUCUGCGAAUUUUGCUGU [U26C C63U]: the self-cleavage is 1.
Turning to GGGGGCCACAGCAGAAGCGUUCACGCCGCGGCCCCUGUCAGAUUCUGGUGAAUCUGCGAAUUGUGCUGU [U26C C63G], the self-cleavage stood at 0.599.
Consider GGGGGCCACAGCAGAAGCGUUCACGCCGCGGCCCCUGUCAGAUUCUGGUGAAUCUGCGGAUUCUGCUGU [U26C A59G], for which the self-cleavage stood at 1.05.
As to GGGGGCCACAGCAGAAGCGUUCACGCCGCGGCCCCUGUCAGAUUCUGGUGAAUCUGCGUAUUCUGCUGU [U26C A59U], the self-cleavage worked out at 0.677.
For the variant GGGGGCCACAGCAGAAGCGUUCACGCCGCGGCCCCUGUCAGAUUCUAGUGAAUCUGCGAAUUCUGCUGU [U26C G47A], the self-cleavage was 0.957.

The record behind these values is the RNAGym collection of RNA variant scans (doi:10.7554/elife.80360).
